Like-named read-outs stand apart in the source and are kept apart here. Where no end group is shown, it is not given here.
Columns and labels:
[1] = biological target: T1, TRPV1 (Rattus norvegicus, UniProt O35433); experiment: cell-based
T1 construct: expressed in transfected cells; host or cells: Xenopus laevis oocytes injected with cRNA
Protocol: To control the expression level of the TRPV1 channels, experiments were initiated with a first activation of TRPV1 with 1 μM capsaicin (CAP). […] This activation gives an inward non-selective cation current. […] Before application of HCRG21, cells are washed with ND96 to remove any presence of […]. […] However, when rHCRG21 was co-applied together with the agonist capsaicin, a reduction of the current was observed (Figure 5b). […] A concentration–response curve was constructed in order to assess the concentration dependence of the rHCRG21 induced effect. The IC50 value yielded 6.9 ± 0.4 μM (Figure 5c).
Figure 5 Activity profile of rHCRG21 (10 μM) on the TRPV1 receptor. The figures show the results of one representative experiment. Whole-cell current traces in control and rHCRG21 conditions are shown. […] All data represent the average of at least three independent experiments (n ≥ 3) and are presented as mean ± standard error; (c) Concentration–response curve for rHCRG21 on TRPV1 receptor.
For the expression of rKv1.1, hKv1.3, rKv1.4, rKv1.5, rKv1.6, Shaker IR, hERG, and TRPV1 in Xenopus oocytes, the linearized plasmids were transcribed using the T7 or SP6 mMESSAGE-mMACHINE transcription kit (Ambion, Austin, TX, USA). The harvesting of stage V–VI oocytes from anaesthetized female Xenopus laevis frog was previously described. Oocytes were injected with 50 nL of cRNA at a concentration of 1 ng/nL using a micro-injector (Drummond Scientific, Broomall, PA, USA). The oocytes were incubated in a solution containing (in mM): NaCl, 96; KCl, 2; CaCl2, 1.8; MgCl2, 2 and HEPES, 5 (pH 7.4), supplemented with 50 mg/L gentamicin sulfate.
Two-electrode voltage-clamp recordings were performed at room temperature (18–22 °C) using a Geneclamp 500 amplifier (Molecular Devices, Sunnyvale, CA, USA) controlled by a pClamp data acquisition system (Axon Instruments, Foster City, CA, USA). Whole cell currents from oocytes were recorded 1–4 days after injection. Bath solution composition was ND96 (in mM): NaCl, 96; KCl, 2; CaCl2, 1.8; MgCl2, 2, and HEPES, 5 (pH 7.4). Voltage and current electrodes were filled with 3 M KCl. Resistances of both electrodes were kept between 0.8 and 1.5 MΩ. The elicited currents were filtered and sampled at, respectively, 1 kHz and 10 kHz (for potassium currents) and at, respectively, 0.2 kHz and 0.5 kHz (for TRPV1 currents), using a four-pole low-pass Bessel filter. Leak subtraction was performed using a –P/4 protocol. KV1.1–KV1.6 and Shaker currents were evoked by 500 ms depolarizations to 0 mV followed by a 500 ms pulse to −50 mV, from a holding potential of −90 mV. Current traces of hERG channels were elicited by applying a +40 mV prepulse for 2 s followed by a step to −120 mV for 2 s. TRPV1 currents were measured in ND96 solution using a protocol of −90 mV during 400 s. The recording chamber was perfused at a rate of 2 mL·min^−1 with a ND96 solution. As previously described, capsaicin (2 μM) was used as an agonist and capsazepine (10 μM) as an antagonist of TRPV1. Capsaicin and capsazepine were purchased from Sigma. All data represent at least 3 independent experiments (n ≥ 3) in which independent experiments represent experiments on different cells expressing TRPV1 channel and are presented as mean ± standard error.

[2] = biological target: α-chymotrypsin (Bos taurus, UniProt P00766); settings: cited from earlier work
From the text: The HCGS peptide subfamily and their evolutionary relationships were described in details previously. […] Moreo ...

[3] = biological target: trypsin; settings: cited from earlier work
From the text: The HCGS peptide subfamily and their evolutionary relationships were described in details previously. […] It is shown, that the first known H. crispa analgesic Kunitz-type peptides, APHC1–APHC3, have a Thr residue (instead of Lys or Arg) at position P1, similar to other representatives of the analgesic cluster (Figure 1a,b).

[4] = biological target: T1, TRPV1; settings: cited from earlier work
From the text: They are the first sea anemone peptide characterized as TRPV1 modulators. […] It belongs to the family of polymodal TRP channels, serving as a molecular cellular sensor, which is activated by a wide spectrum of physical and chemical stimuli. They have diverse biophysical properties such as cation selectivity, specific mechanisms of activation, and they play the main role in ma ... || To control the expression level of the TRPV1 channels, experiments were initiated with a first activation of TRPV1 with 1 μM capsaicin (CAP). […] This activation gives an inward non-selective cation current. […] Before application of HCRG21, cells are washed with ND96 to remove any presence of capsazepine. […] Similarly ... || (+ 3 further places)

[5] = biological target: α-chymotrypsin; experiment: enzyme inhibition kinetics (Dixon method); trypsin with BAPNA, α-chymotrypsin with BTEE as substrate; substrate concentrations 133 and 65 mM; both enzymes 215 nM; peptide 0 up to 3.2 mM; three parallel experiments
[6] = biological target: trypsin; experiment: as above
[7] = biological target: transient receptor potential family member vanilloid 1 (TRPV1) (UniProt O35433)
Chain of transient receptor potential family member vanilloid 1 (TRPV1) (O35433 whole entry): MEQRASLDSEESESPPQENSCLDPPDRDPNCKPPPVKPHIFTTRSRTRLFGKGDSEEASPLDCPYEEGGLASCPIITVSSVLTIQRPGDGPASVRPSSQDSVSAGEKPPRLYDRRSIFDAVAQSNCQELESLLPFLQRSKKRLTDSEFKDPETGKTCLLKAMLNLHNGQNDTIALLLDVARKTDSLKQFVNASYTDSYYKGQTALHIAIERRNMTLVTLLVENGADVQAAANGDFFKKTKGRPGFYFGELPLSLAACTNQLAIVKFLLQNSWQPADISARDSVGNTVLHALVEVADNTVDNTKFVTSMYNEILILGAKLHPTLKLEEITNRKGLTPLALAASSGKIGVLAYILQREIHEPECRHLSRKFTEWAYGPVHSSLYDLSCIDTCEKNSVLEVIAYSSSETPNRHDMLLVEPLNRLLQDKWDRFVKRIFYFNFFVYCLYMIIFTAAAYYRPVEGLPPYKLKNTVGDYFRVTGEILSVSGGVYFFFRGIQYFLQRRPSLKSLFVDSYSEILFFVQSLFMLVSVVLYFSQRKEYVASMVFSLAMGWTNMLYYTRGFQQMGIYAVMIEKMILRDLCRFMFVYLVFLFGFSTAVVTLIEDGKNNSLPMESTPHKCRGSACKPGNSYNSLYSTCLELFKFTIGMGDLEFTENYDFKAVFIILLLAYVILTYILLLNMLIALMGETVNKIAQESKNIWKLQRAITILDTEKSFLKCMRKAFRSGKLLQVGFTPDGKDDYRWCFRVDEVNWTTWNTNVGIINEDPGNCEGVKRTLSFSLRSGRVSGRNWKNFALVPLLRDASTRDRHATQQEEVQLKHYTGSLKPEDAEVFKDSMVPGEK

T1 sequence (O35433 whole entry): as above

## COc1cc(CNC(=O)CCCC/C=C/C(C)C)ccc1O [capsaicin, reference compound]
[1]
  effect on TRPV1 (control agonist): opens the channels

## APHC1: H. crispa analgesic Kunitz-type peptide (UniProt B2G331)
[2]
  Ki: 5000 nM

## APHC2: H. crispa analgesic Kunitz-type peptide (UniProt C0HJF4)
[2]
  Ki: 4500 nM

## AsKC3: Kunitz-type peptide from Anemonia sulcata (UniProt Q9TWF8) (INGDCELPKVVGRCRARFPRYYYNLSSRRCEKFIYGGCGGNANNFHTLEECEKVCGVRS; ends and bridges not checked; cysteine pairing not given here; UniProt Q9TWF8 1-59, looked up)
[3]
  Ki: < 0.3 nM

## Oc1cc2c(cc1O)CN(C(=S)NCCc1ccc(Cl)cc1)CCC2 [capsazepine, reference compound]
[1]
  effect on capsaicin-activated TRPV1 (control antagonist): closes the channels allowing the current levels to return to zero

## AsKC1: kalicludine from Anemonia sulcata (UniProt Q9TWG0) (INKDCLLPMDVGRCRASHPRYYYNSSSKRCEKFIYGGCRGNANNFHTLEECEKVCGVR; ends and bridges not checked; cysteine pairing not given here; UniProt Q9TWG0 1-58, looked up)
[3]
  Ki: < 0.3 nM

## APHC1: H. crispa analgesic Kunitz-type peptide (UniProt B2G331) (GSICLEPKVVGPCTAYFRRFYFDSETGKCTVFIYGGCEGNGNNFETLRACRAICRA; three disulfides (Kunitz fold)) [reference compound]
[4]; read-out: EC50, decrease of capsaicin induced currents through TRPV1
  EC50: 54 ± 4 nM

## recombinant HCRG21, Kunitz-type peptide from the sea anemone Heteractis crispa (from UniProt P0DL86 1-56)
[5]
  Ki: 700 nM

## AsKC2: kalicludine from Anemonia sulcata (UniProt Q9TWF9) (INKDCLLPMDVGRCRARHPRYYYNSSSRRCEKFIYGGCRGNANNFITKKECEKVCGVR; ends and bridges not checked; cysteine pairing not given here; UniProt Q9TWF9 1-58, looked up)
[3]
  Ki: < 0.3 nM

## APHC3: H. crispa analgesic Kunitz-type peptide (UniProt C0HJF3)
[2]
  Ki: 7000 nM

B1: recombinant HCRG21, Kunitz-type peptide from the sea anemone Heteractis crispa (peptide)
chain: RGICSEPKVVGPCTAYFRRFYFDSETGKCTPFIYGGCEGNGNNFETLRACRAICRA
[6]
  Ki: 200 nM
[7]
  IC50 of the inhibition of the capsaicin-induced current through TRPV1 in X. laevis oocytes (two-electrode voltage clamp, peptide co-applied with capsaicin; concentration-response curve): 6900 nM

B2: DkTx: double-knot toxin from the Chinese bird spider Ornithoctonus huwena (peptide, UniProt P0CH43 1-79, looked up)
Tau-theraphotoxin-Hs1a: DCAKEGEVCSWGKKCCDLDNFYCPMEFIPHCKKYKPYVPVTTNCAKEGEVCGWGSKCCHGLDCPLAFIPYCEKYRGRND
[4]; conformational change in the receptor upper pore region
  effect of DkTx on TRPV1 current: enhances the ion current through the channel
[4]; ref 48 (DkTx), ref 49 (VaTx1–VaTx3), ref 50 (BmP01)
  TRPV1 agonism: agonists

— PMC5192466, “Kunitz-Type Peptide HCRG21 from the Sea Anemone Heteractis crispa Is a Full Antagonist of the TRPV1 Receptor” (Marine Drugs, 2016)
